{"source": "patent US20020151497", "key": {"[1]": {"target": "Syk, endogenous, from WEHI-231 cells (UniProt P48025)", "sequence (P48025 whole entry, looked up)": "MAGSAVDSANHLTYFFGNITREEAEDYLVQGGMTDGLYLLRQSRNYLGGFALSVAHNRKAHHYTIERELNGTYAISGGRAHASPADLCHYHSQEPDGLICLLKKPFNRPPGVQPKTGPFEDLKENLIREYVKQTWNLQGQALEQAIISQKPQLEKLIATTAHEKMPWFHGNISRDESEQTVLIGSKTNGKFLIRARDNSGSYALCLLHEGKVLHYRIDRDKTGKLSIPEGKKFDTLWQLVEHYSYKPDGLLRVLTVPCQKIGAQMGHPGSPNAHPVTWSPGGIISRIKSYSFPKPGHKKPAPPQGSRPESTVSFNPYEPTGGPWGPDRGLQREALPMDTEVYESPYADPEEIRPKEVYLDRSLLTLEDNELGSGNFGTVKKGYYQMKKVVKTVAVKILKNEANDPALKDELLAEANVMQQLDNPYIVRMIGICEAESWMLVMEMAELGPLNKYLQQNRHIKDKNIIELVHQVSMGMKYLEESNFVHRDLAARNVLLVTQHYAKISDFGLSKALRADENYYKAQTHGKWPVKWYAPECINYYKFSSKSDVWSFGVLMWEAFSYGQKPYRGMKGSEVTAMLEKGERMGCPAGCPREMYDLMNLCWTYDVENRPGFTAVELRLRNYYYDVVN"}, "[2]": {"target": "T1, CD19, endogenous, immunoprecipitated from WEHI-231 cells (UniProt P25918)", "T1 sequence": "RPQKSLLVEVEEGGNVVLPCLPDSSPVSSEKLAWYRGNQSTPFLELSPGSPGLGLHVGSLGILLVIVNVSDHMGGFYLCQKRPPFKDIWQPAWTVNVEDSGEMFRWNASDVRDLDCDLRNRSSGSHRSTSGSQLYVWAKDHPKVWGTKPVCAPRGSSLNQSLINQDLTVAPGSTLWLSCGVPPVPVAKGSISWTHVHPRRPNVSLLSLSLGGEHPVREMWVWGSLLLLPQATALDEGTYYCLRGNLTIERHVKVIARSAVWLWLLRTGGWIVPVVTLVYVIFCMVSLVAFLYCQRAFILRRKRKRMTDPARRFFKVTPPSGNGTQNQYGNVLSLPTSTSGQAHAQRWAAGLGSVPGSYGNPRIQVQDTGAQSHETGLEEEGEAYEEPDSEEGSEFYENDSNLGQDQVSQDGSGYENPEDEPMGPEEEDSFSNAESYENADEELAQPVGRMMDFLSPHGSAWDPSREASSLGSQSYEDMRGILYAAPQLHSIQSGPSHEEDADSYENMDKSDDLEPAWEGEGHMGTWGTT"}, "[3]": {"target": "Lyn-kinase, endogenous, immunoprecipitated from WEHI-231 cells (UniProt P25911)", "sequence (P25911 whole entry, looked up)": "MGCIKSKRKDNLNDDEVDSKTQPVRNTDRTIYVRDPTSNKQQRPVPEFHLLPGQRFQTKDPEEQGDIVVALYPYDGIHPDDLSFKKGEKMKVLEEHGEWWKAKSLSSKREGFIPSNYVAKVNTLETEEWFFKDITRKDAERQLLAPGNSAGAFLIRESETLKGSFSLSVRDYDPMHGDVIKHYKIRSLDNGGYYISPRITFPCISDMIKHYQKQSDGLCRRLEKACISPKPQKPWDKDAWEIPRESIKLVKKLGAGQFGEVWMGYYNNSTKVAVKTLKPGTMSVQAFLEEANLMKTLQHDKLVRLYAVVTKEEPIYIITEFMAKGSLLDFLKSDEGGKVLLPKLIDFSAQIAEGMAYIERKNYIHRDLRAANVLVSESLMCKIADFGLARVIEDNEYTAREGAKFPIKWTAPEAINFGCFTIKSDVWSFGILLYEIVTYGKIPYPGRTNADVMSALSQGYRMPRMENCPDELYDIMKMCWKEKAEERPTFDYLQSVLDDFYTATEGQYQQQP"}}}
{"substance": "exogenous Lyn (5 units added to the kinase assay)", "values": [{"measurement": "phosphorylation level of immunoprecipitated Syk (anti-phosphotyrosine Western blot) with exogenous Lyn and 0, 10, 50 and 100 µM K055H302", "setting": "[1]", "result": "Lyn, CD19 and Syk all showed dose-dependent decreased phosphorylation in the presence of the compound of the invention"}, {"measurement": "phosphorylation level of immunoprecipitated CD19 (anti-phosphotyrosine Western blot) with exogenous Lyn and 0, 10, 50 and 100 µM K055H302", "setting": "[2]", "result": "Lyn, CD19 and Syk all showed dose-dependent decreased phosphorylation in the presence of the compound of the invention"}, {"measurement": "phosphorylation level of immunoprecipitated Lyn (anti-phosphotyrosine Western blot) with exogenous Lyn and 0, 10, 50 and 100 µM K055H302", "setting": "[3]", "result": "Lyn, CD19 and Syk all showed dose-dependent decreased phosphorylation in the presence of the compound of the invention"}]}
